Data reported in article PMC2291563, “SAM Domain-Based Protein Oligomerization Observed by Live-Cell Fluorescence Fluctuation Spectroscopy” (PLoS ONE, 2008).

Legend:
Ste50-mCherry = target: T1, Ste50-mCherry (budding yeast (S288C background), UniProt P25344 1-346); assay: two-dimensional photon counting histogram (2dPCH); live yeast cells with Ste11-GFP and Ste50-mCherry, cytosolic pool; 50 µs bins; two-component fit; cycling cells, also after α-factor or NaCl; settings: partners not purified
T1 construct: Ste50, SAM domain protein, budding yeast; tagged at the chromosomal locus; source: expressed from its chromosomal locus in live yeast cells (S288C background); not shown: mCherry, C-terminal, kept
T1 sequence (looked up): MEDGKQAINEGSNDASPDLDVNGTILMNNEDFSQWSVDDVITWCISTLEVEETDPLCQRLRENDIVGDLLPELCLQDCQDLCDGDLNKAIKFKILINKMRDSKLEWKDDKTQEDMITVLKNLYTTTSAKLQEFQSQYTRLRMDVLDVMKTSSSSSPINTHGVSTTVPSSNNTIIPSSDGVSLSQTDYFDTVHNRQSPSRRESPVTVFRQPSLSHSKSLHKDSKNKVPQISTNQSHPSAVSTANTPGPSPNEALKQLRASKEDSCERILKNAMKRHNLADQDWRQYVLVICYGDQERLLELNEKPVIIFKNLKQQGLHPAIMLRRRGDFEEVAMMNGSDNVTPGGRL

[1] = target: the molecule itself; assay: photon counting histogram (1dPCH), constrained two-component fit; live yeast cells, cycling; monomer brightness fixed, oligomer brightness and numbers freely varied; subunits estimated from a linear extrapolation of GFP brightness
[2] = target: the molecule itself; assay: photon counting histogram (1dPCH), constrained two-component fit; live yeast cells at high salt (NaCl); monomer brightness fixed, oligomer brightness and numbers freely varied; subunits estimated from a linear extrapolation of GFP brightness
[3] = target: the molecule itself; assay: photon counting histogram (1dPCH), constrained two-component fit; live yeast cells treated with α-factor; monomer brightness fixed, oligomer brightness and numbers freely varied; subunits estimated from a linear extrapolation of GFP brightness

Binder	stoichiometry N (Ste50-mCherry) [Ste11 per Ste50]	stoichiometry N [1]	stoichiometry N [2]	stoichiometry N [3]
Ste11-GFP (natural protein, budding yeast (S288C background), UniProt P23561 1-717, looked up, Ste11, MAP kinase kinase kinase with a SAM domain, budding yeast; tagged at the chromosomal locus; source: expressed from its chromosomal locus in live yeast cells (S288C background); not shown: GFP, C-terminal, kept) MEQTQTAEGTDLLIGDEKTNDLPFVQLFLEEIGCTQYLDSFIQCNLVTEEEIKYLDKDILIALGVNKIGDRLKILRKSKSFQRDKRIEQVNRLKNLMEKVSSLSTATLSMNSELIPEKHCVIFILNDGSAKKVNVNGCFNADSIKKRLIRRLPHELLATNSNGEVTKMVQDYDVFVLDYTKNVLHLLYDVELVTICHANDRVEKNRLIFVSKDQTPSDKAISTSKKLYLRTLSALSQVGPSSSNLLAQNKGISHNNAEGKLRIDNTEKDRIRQIFNQRPPSEFISTNLAGYFPHTDMKRLQKTMRESFRHSARLSIAQRRPLSAESNNIGDILLKHSNAVDMALLQGLDQTRLSSKLDTTKIPKLAHKRPEDNDAISNQLELLSVESGEEEDHDFFGEDSDIVSLPTKIATPKNWLKGACIGSGSFGSVYLGMNAHTGELMAVKQVEIKNNNIGVPTDNNKQANSDENNEQEEQQEKIEDVGAVSHPKTNQNIHRKMVDALQHEMNLLKELHHENIVTYYGASQEGGNLNIFLEYVPGGSVSSMLNNYGPFEESLITNFTRQILIGVAYLHKKNIIHRDIKGANILIDIKGCVKITDFGISKKLSPLNKKQNKRASLQGSVFWMSPEVVKQTATTAKADIWSTGCVVIEMFTGKHPFPDFSQMQAIFKIGTNTTPEIPSWATSEGKNFLRKAFELDYQYRPSALELLQHPWLDAHII	2	–	–	–
Ste50-GFP (natural protein, budding yeast (S288C background), UniProt P25344 1-346, looked up, Ste50, SAM domain protein, budding yeast; tagged at the chromosomal locus; source: expressed from its chromosomal locus in live yeast cells (S288C background); not shown: GFP, C-terminal, kept) MEDGKQAINEGSNDASPDLDVNGTILMNNEDFSQWSVDDVITWCISTLEVEETDPLCQRLRENDIVGDLLPELCLQDCQDLCDGDLNKAIKFKILINKMRDSKLEWKDDKTQEDMITVLKNLYTTTSAKLQEFQSQYTRLRMDVLDVMKTSSSSSPINTHGVSTTVPSSNNTIIPSSDGVSLSQTDYFDTVHNRQSPSRRESPVTVFRQPSLSHSKSLHKDSKNKVPQISTNQSHPSAVSTANTPGPSPNEALKQLRASKEDSCERILKNAMKRHNLADQDWRQYVLVICYGDQERLLELNEKPVIIFKNLKQQGLHPAIMLRRRGDFEEVAMMNGSDNVTPGGRL	–	5 to 6	3 to 4	~4
